Reference: IntAct's records for PubMed 24583011

Experiments:
sv2c_rat Sv2c [1] = target: T1, sv2c_rat Sv2c (UniProt Q9Z2I6)
T1 sequence: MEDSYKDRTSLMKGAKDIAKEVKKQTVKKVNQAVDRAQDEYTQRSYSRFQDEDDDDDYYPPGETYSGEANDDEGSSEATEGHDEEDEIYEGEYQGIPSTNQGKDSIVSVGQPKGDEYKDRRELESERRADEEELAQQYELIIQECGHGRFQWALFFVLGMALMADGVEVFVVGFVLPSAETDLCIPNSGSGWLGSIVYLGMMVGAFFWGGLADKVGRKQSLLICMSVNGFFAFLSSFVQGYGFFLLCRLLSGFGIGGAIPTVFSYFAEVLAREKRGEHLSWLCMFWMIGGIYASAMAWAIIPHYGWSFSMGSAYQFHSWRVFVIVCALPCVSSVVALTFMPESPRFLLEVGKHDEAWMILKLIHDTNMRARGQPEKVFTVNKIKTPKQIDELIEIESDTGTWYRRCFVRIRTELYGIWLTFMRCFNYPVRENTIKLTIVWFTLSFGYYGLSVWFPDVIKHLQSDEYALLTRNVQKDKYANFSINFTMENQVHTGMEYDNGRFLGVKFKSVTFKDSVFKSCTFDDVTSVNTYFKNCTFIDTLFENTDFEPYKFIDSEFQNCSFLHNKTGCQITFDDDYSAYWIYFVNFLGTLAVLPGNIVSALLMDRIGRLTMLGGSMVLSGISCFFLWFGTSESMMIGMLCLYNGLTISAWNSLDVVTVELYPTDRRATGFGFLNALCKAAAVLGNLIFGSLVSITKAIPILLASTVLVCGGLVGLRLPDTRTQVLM

sv2c_rat Sv2c [2] = target: T1, sv2c_rat Sv2c; remark: listed apart in the source
sv2c_rat Sv2c [3] = target: T1, sv2c_rat Sv2c; remark: listed apart in the source
sv2c_rat Sv2c [4] = target: T1, sv2c_rat Sv2c; remark: listed apart in the source
sv2c_rat Sv2c [5] = target: T1, sv2c_rat Sv2c; remark: listed apart in the source
sv2c_rat Sv2c [6] = target: T1, sv2c_rat Sv2c; remark: listed apart in the source
sv2c_rat Sv2c [7] = target: T1, sv2c_rat Sv2c; remark: listed apart in the source
sv2c_rat Sv2c [8] = target: T1, sv2c_rat Sv2c; remark: listed apart in the source
sv2c_rat Sv2c [9] = target: T1, sv2c_rat Sv2c; remark: listed apart in the source
sv2c_rat Sv2c [10] = target: T1, sv2c_rat Sv2c; remark: listed apart in the source

Botulinum neurotoxin type A (Clostridium botulinum) (from UniProt P0DPI0) D1108R
effect of a mutation on the interaction (sv2c_rat Sv2c [1]): decreasing interaction

Botulinum neurotoxin type A (Clostridium botulinum) (from UniProt P0DPI0) G1292R
effect of a mutation on the interaction (sv2c_rat Sv2c [2]): decreasing interaction

Botulinum neurotoxin type A (Clostridium botulinum) (from UniProt P0DPI0) H1064G
effect of a mutation on the interaction (sv2c_rat Sv2c [3]): decreasing interaction

Botulinum neurotoxin type A (Clostridium botulinum) (from UniProt P0DPI0) K1163E
effect of a mutation on the interaction (sv2c_rat Sv2c [4]): decreasing interaction

Botulinum neurotoxin type A (Clostridium botulinum) (from UniProt P0DPI0) N905Y
effect of a mutation on the interaction (sv2c_rat Sv2c [5]): decreasing interaction

Botulinum neurotoxin type A (Clostridium botulinum) (from UniProt P0DPI0) N1188A
effect of a mutation on the interaction (sv2c_rat Sv2c [6]): decreasing interaction

Botulinum neurotoxin type A (Clostridium botulinum) (from UniProt P0DPI0) R1131E
effect of a mutation on the interaction (sv2c_rat Sv2c [7]): decreasing interaction

Botulinum neurotoxin type A (Clostridium botulinum) (from UniProt P0DPI0) R1156M
effect of a mutation on the interaction (sv2c_rat Sv2c [8]): decreasing interaction

Botulinum neurotoxin type A (Clostridium botulinum) (from UniProt P0DPI0) T1063P
effect of a mutation on the interaction (sv2c_rat Sv2c [9]): decreasing interaction

Botulinum neurotoxin type A (Clostridium botulinum) (from UniProt P0DPI0) V1287E
effect of a mutation on the interaction (sv2c_rat Sv2c [10]): decreasing interaction
